Assay [1] concerns the target T1, HLA-A2 on T2 cells (HLA-A*0201) (human).
T1 construct: Class I molecule on the T2 cell surface, stabilised by peptide; Detected with mAb W6/32; also called T2-A2
The assay can be described thus: T2 stabilisation assay, flow cytometry with W6/32. An excerpt: (§1) T2 cells were pulsed with 225 micrograms of peptide per ml overnight at room temperature before analysis by flow cytometry. T2 cells expressing HLA-A2 (A) or HLA-A24 (C) were stained with an unlabeled mouse anti-HLA class I molecule monoclonal antibody W6/32 and a goat-anti-mouse FITC-labeled IgG2a secondary antibody. T2 cells genetically modified to express A3 (B) were stained with an unlabeled mouse anti-human HLA-A3 specific monoclonal antibody GAPA3 and a FITC-labeled IgG2a secondary antibody.
(§2) Materials and Methods. Peptide/MHC binding Assays. T2 cells expressing the HLA molecule of interest were resuspended in AimV serum free media (Gibco, Grand Island, N.Y.) to a concentration of 1×10⁶ cells/ml and pulsed with 3 μg/ml beta-2 microglobulin (β₂-M) (Sigma, St. Louis, Mo.) plus peptide at 0-225 μg/ml of peptide at room temperature overnight. The cells were washed and resuspended at 2×10⁵ cells/ml. The level of stabilized MHC on the cell surface of the T2 and T2-A24 cells were analyzed by direct staining of cell samples with unlabeled anti-class I mAb W6/32 and a FITC-labeled goat-anti-mouse IgG2a secondary antibody.
(In flow cytometry, cells or beads pass a laser one at a time.)

In assay [2] the target is T2, HLA-A3 on T2-A3 cells (HLA-A*0301) (human).
T2 construct: Detected with the anti-HLA-A3 mAb GAPA3
The assay can be described thus: T2-A3 stabilisation assay, flow cytometry with GAPA3.
Text: as §1, §2

Here are results for one molecule from patent US20110243972A1 (Johns Hopkins, published 2011).

For EIDESLIFY [Mesothelin A1 (309-317) peptide (EIDESLIFY)], the binding result in assay [1] and in assay [2] was “no binding (tested: 225 micrograms of peptide per ml)” each time.
